The values that follow come from publication PMC11478330, “Sandwich-Type Electrochemical Aptasensor with Supramolecular Architecture for Prostate-Specific Antigen”.

The data set has as its target prostate-specific antigen (PSA) (UniProt P07288 25-261). As to the kind of experiment: electrochemical impedance spectroscopy; Apt-ADA on CD-AuNFs/rGO/SPCE; charge transfer resistance rises with PSA; PBS (detection limit measurement); binding buffer details, pH and temperature not given in the material. The settings on record: protein: commercial; hairpin.

Chain of prostate-specific antigen (PSA) (P07288 25-261): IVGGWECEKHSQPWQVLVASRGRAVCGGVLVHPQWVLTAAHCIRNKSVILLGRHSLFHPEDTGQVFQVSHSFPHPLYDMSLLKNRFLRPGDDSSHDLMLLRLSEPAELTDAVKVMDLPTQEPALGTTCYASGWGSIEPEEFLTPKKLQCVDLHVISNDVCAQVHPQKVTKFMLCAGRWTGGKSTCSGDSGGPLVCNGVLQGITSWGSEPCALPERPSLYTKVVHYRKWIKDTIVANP

For TTTTTAATTAAAGCTCGCCATCAAATAGCTTT (structured_DNA, 5' amino-C6 coupled to 1-adamantanecarboxylic acid) [anti-PSA aptamer-adamantane conjugate (Apt-ADA)], the binding result is on record as “binds”.
